Test results: the Immune Epitope Database (IEDB)

Assays:
[1] = target: HLA-A*02:01; assay: IEDB peptide-MHC binding, purified MHC/direct/fluorescence; filed as Kd, often an IC50 or EC50 that approximates it; ≥ and ≤ were set here for values at or beyond the usual limits of such assays
[2] = target: HLA-B*58:01; assay: as above
[3] = target: HLA-B*46:01; assay: as above
[4] = target: HLA-B*15:09; assay: as above; details: source organism: Salmonella enterica subsp. enterica serovar Typhimurium str. LT2
[5] = target: HLA-A*03:01; assay: as above
[6] = target: HLA-A*11:01; assay: as above
[7] = target: HLA-A*31:01; assay: as above
[8] = target: HLA-A*26:02; assay: as above; details: source organism: Salmonella enterica subsp. enterica serovar Typhimurium str. LT2
[9] = target: HLA-B*08:02; assay: as above; details: source organism: Salmonella enterica subsp. enterica serovar Typhimurium str. LT2
[10] = target: HLA-B*27:05; assay: as above
[11] = target: HLA-B*15:17; assay: as above
[12] = target: HLA-A*01:01; assay: as above
[13] = target: HLA-B*38:01; assay: as above
[14] = target: HLA-B*48:01; assay: as above
[15] = target: HLA-B*40:01; assay: as above
[16] = target: HLA-A*26:01; assay: as above; details: source organism: Salmonella enterica subsp. enterica serovar Typhimurium str. LT2
[17] = target: HLA-B*57:01; assay: as above
[18] = target: HLA-B*08:01; assay: IEDB peptide-MHC binding, purified MHC/competitive/fluorescence; filed as Kd, often an IC50 or EC50 that approximates it; ≥ and ≤ were set here for values at or beyond the usual limits of such assays
[19] = target: HLA-B*15:01; assay: as above; details: source organism: Salmonella enterica subsp. enterica serovar Typhi
[20] = target: HLA-A*69:01; assay: as above; details: source organism: Salmonella enterica subsp. enterica serovar Typhi
[21] = target: HLA-B*15:01; assay: IEDB peptide-MHC binding, purified MHC/direct/fluorescence; filed as Kd, often an IC50 or EC50 that approximates it; ≥ and ≤ were set here for values at or beyond the usual limits of such assays; details: source organism: Mycobacterium tuberculosis
[22] = target: HLA-B*18:01; assay: as above; details: source organism: Mycobacterium tuberculosis
[23] = target: HLA-A*69:01; assay: as above; details: source organism: Mycobacterium tuberculosis
[24] = target: HLA-B*51:01; assay: as above; details: source organism: Mycobacterium tuberculosis
[25] = target: HLA-B*39:01; assay: IEDB peptide-MHC binding, purified MHC/competitive/fluorescence; filed as Kd, often an IC50 or EC50 that approximates it; ≥ and ≤ were set here for values at or beyond the usual limits of such assays; details: source organism: Mycobacterium tuberculosis variant bovis BCG str. Pasteur 1173P2
[26] = source organism: Salmonella enterica
[27] = source organism: Mycobacterium tuberculosis

Measured: Kd

EIIFYHPTF
0.803 µM: [16]
≤ 0.001 µM: [8]
0.107 µM: [11]; [26]
≥ 20 µM: [1]; [26] | [2]; [26] | [3]; [26] | [4] | [5]; [26] | [6]; [26] | [7]; [26] | [9] | [10]; [26] | [12]; [26] | [13]; source organism: Salmonella enterica subsp. enterica serovar Typhimurium str. LT2 | [14]; [26] | [15]; [26] | [17]; [26] | [18]; source organism: Salmonella enterica subsp. enterica serovar Typhi | [19] | [20]

RPPMVTSGL
≥ 20 µM: [1]; [27] | [21] | [2]; [27] | [3]; [27] | [5]; [27] | [6]; [27] | [7]; [27] | [22] | [23] | [24] | [10]; [27] | [11]; [27] | [12]; [27] | [13]; source organism: Mycobacterium tuberculosis str. Haarlem | [14]; [27] | [15]; [27] | [17]; [27] | [18]; source organism: Mycobacterium tuberculosis variant bovis BCG str. Pasteur 1173P2 | [25]
